Results reported in US20240327504A1 (MABLOC, published 2024).

Legend:
Assay in all cases: cell-based or functional assay
[1] = molecular target: SARS-CoV-2 Spike, Iota variant (SARS-CoV-2, UniProt P0DTC2 14-1273)
[2] = molecular target: T1, SARS-CoV-2 Spike, Beta variant (SARS-CoV-2, UniProt P0DTC2 14-1273)
[3] = molecular target: SARS-CoV-2 Spike, Zeta variant (SARS-CoV-2, UniProt P0DTC2 14-1273)
[4] = molecular target: SARS-CoV-2 Spike, Lambda variant (SARS-CoV-2, UniProt P0DTC2 14-1273)
[5] = molecular target: T2, SARS-CoV-2 Spike, Alpha variant (SARS-CoV-2, UniProt P0DTC2 14-1273)
[6] = molecular target: SARS-CoV-2 Spike, Epsilon variant (SARS-CoV-2, UniProt P0DTC2 14-1273)
[7] = molecular target: T3, SARS-CoV-2 Spike, Delta variant (SARS-CoV-2, UniProt P0DTC2 14-1273)
[8] = molecular target: T4, SARS-CoV-2 Spike, Gamma variant (SARS-CoV-2, UniProt P0DTC2 14-1273)
[9] = molecular target: SARS-CoV-2 Spike, Kappa variant (SARS-CoV-2, UniProt P0DTC2 14-1273)
[10] = molecular target: SARS-CoV-2 Spike, Eta variant (SARS-CoV-2, UniProt P0DTC2 14-1273)
[11] = molecular target: T1, SARS-CoV-2 Spike, Beta variant; remark: listed apart in the source
[12] = molecular target: T2, SARS-CoV-2 Spike, Alpha variant; remark: listed apart in the source
[13] = molecular target: T3, SARS-CoV-2 Spike, Delta variant; remark: listed apart in the source
[14] = molecular target: T4, SARS-CoV-2 Spike, Gamma variant; remark: listed apart in the source

B1: MR22950 antibody (antibody, V domains shown)
VH: QLQLQESGPGLVKPSEPLSLTCAVSGGFIGTNWWTWIRQPPGKGLEWIGRISGSVGSTSYNPSLKSRVTISRDTSKNQFSLNLNSLTAADTAVYYCAREGRLDTLDWGQGVLVIVSS
VL: QSVLTQPPSASEAARKSVTISCSGSSSNIGSYSVSWYQQFPGTPPKLLIYFNDQRASGVSDRFSGSKSGTSASLAISGLQTEDEADYYCAGWDDSLNGVLFGGGTRLTVLG
[1]
  Neut50: 0.5 ng/mL
[2]
  Neut50: 33 ng/mL
[3]
  Neut50: 3.8 ng/mL
[4]
  Neut50: 19 ng/mL
[5]
  Neut50: 7.3 ng/mL
[6]
  Neut50: 10.8 ng/mL
[7]
  Neut50: 7.8 ng/mL
[8]
  Neut50: 105 ng/mL
[9]
  Neut50: 15 ng/mL
[10]
  Neut50: 16 ng/mL
[11]
  Neut50 (ng/mL), authentic live virus, plaques on Vero cells: 6.9 ng/mL
[12]
  Neut50 (ng/mL), authentic live virus, plaques on Vero cells: 4.7 ng/mL
[13]
  Neut50 (ng/mL), authentic live virus, plaques on Vero cells: 20.3 ng/mL
[14]
  Neut50 (ng/mL), authentic live virus, plaques on Vero cells: 12.7 ng/mL
